In US20240325555A1 (LANOVA MEDICINES, published 2024):
Read-outs that look alike come from different tables or passages of the source. Values belong to the binder of their own block, whether it stands above or below them.

Legend:
human LIV-1 [1] = target: T1, human LIV-1 (human, UniProt Q13433 29-755); experiment: FACS, human LIV-1 cells
T1 construct: whole, on cells; also called H-LIV1
T1 sequence (looked up): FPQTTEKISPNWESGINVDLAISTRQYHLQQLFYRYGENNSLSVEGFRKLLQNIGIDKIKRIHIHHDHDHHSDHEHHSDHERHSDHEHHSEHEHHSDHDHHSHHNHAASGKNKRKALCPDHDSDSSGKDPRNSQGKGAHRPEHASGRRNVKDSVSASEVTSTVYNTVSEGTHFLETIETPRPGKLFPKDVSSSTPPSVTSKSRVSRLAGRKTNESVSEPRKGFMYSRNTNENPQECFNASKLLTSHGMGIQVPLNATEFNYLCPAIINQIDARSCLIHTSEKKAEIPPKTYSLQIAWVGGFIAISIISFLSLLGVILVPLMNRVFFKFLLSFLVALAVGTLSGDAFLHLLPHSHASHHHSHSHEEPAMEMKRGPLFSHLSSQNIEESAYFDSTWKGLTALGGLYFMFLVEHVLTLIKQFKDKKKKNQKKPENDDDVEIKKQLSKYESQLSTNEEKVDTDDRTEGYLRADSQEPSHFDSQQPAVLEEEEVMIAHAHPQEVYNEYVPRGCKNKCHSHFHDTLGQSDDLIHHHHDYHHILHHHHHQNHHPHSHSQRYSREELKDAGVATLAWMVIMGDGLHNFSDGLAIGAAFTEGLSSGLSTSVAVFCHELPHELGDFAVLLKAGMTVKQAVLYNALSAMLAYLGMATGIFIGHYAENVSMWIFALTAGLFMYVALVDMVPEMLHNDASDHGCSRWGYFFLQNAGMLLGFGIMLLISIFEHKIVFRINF
Method: (§1) In this example, cell based binding of humanized antibodies (hu Abs) on human LIV-1-expressing cells were assessed using flow cytometry.
(§2) Cell based binding of hu-Abs on human LIV-1 expressing cells were assessed using flow cytometry. Briefly, the HEK293/H_LIV-1 cells were incubated with hu-Abs (from 100 nM, 6 folds dilution, 8 points). After incubation at 4° C. for 60 minutes, the cells were washed with FACS buffer twice, then stained with fluorescent conjugated secondary antibody at 4° C. for 30 minutes. After that the cells were washed twice and analyzed by flow cytometry.

human LIV-1 [2] = target: T1, human LIV-1; experiment: cell-based or functional assay
human LIV-1 [3] = target: T1, human LIV-1; experiment: FACS, HEK293/H_LIV-1 cells
Method: as §2, with “ADC and naked of ADC” for “hu-Abs”, “HEK293/H_LIV-1, both low- and high-expressing H-LIV1-positive cell lines” for “the HEK293/H_LIV-1 cells”, “points), respectively.” for “points).”

cynomolgus LIV-1 [4] = target: T2, cynomolgus LIV-1 (cynomolgus, UniProt A0A2K5WH46 30-741); experiment: FACS, cyno LIV-1 cells
Target sequence in this assay (A0A2K5WH46 entry or part of it): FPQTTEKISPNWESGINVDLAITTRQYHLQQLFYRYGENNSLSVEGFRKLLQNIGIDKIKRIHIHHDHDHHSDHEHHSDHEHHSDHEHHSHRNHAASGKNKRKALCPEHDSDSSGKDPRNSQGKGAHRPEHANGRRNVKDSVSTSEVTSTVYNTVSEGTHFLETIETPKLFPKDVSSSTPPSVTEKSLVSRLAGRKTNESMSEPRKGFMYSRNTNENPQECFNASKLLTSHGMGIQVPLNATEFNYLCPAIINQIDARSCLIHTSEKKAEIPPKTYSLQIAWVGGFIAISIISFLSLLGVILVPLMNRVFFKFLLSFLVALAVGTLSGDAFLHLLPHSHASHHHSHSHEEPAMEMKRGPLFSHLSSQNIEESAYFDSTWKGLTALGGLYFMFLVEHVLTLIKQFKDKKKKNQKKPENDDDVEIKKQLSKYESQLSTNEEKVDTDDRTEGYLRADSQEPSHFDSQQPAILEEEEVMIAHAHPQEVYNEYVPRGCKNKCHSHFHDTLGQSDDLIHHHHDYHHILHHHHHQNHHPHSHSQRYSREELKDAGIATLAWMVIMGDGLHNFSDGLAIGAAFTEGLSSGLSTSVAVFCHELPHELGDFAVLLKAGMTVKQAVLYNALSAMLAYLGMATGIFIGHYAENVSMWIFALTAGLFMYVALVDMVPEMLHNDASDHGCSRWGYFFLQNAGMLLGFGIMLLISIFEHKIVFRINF

human LIV-1 [5] = target: T1, human LIV-1; experiment: FACS, BT20/H_LIV-1 High cells
Method: as §2, with “ADC and naked of ADC” for “hu-Abs”, “HEK293/H_LIV-1, both low- and high-expressing H-LIV1-positive cell lines” for “the HEK293/H_LIV-1 cells”, “points), respectively.” for “points).”

human LIV-1 [6] = target: T1, human LIV-1; experiment: FACS, BT20/H_LIV-1 Low cells
Method: as §2, with “ADC and naked of ADC” for “hu-Abs”, “HEK293/H_LIV-1, both low- and high-expressing H-LIV1-positive cell lines” for “the HEK293/H_LIV-1 cells”, “points), respectively.” for “points).”

human LIV-1 [7] = target: T1, human LIV-1; experiment: cell-based or functional assay; remark: listed apart in the source
human LIV-1 [8] = target: T1, human LIV-1; experiment: cell-based or functional assay; remark: listed apart in the source
human LIV-1 [9] = target: T1, human LIV-1; experiment: cell-based or functional assay; remark: listed apart in the source
cynomolgus LIV-1 [10] = target: T2, cynomolgus LIV-1; experiment: FACS, HEK293/Cyno_LIV-1 cells
Target sequence in this assay (A0A2K5WH46 entry or part of it): as above

rhesus LIV-1 = rhesus LIV-1 (rhesus, UniProt H9FSJ2 30-735); experiment: FACS, HEK293/Rhe_LIV-1 cells
Method: Humanized antibodies 5D6B10.z7, 124H4D11.p2.z4 and 290F10G10.p1.z2 were selected for further testing. In this example, FACS cross binding of these selected antibodies to LIV-1 of different species were assessed using flow cytometry.
(§3) Cell based binding of optimal leads to different species LIV-1 expressing cells were assessed using flow cytometry. Briefly, the cells were incubated with optimal leads (from 100 nM, 6 folds dilution, 8 points). After incubation at 4° C. for 60 minutes, the cells were washed with 2% FBS/PBS buffer twice, then stained with fluorescent conjugated secondary antibody at 4° C. for 30 minutes. After that the cells were washed twice and resuspended in 80 μL of 2% FBS/PBS buffer. Fluorescent signal of binding was detected using Agilent. The EC50 was calculated using the GraphPad Software (LaJolla, CA).

human LIV-1 [11] = target: T1, human LIV-1; experiment: cell-based or functional assay; remark: listed apart in the source
cynomolgus LIV-1 [12] = target: T2, cynomolgus LIV-1; experiment: FACS, HEK293/Cyno_LIV-1 cells; remark: listed apart in the source
How it was run: (§4)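 HEK293 cells over-expressing human or cyno LIV-1 incubated with chimeric Abs (from 100 nM, 5-fold dilutions, 8 points) for 60 min at 4 °C, then fluorescent secondary antibody 30 min at 4 °C; washes in 2% FBS/PBS. Binding read by flow cytometry; EC50 from the titration curve.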

human LIV-1 [13] = target: T1, human LIV-1; experiment: cell-based or functional assay; remark: listed apart in the source
human LIV-1 [14] = target: T1, human LIV-1; experiment: FACS, HEK293/H_LIV-1 cells; remark: listed apart in the source
Method: as §1, §2

cynomolgus LIV-1 [15] = target: T2, cynomolgus LIV-1; experiment: FACS, HEK293/Cyno_LIV-1 cells; remark: listed apart in the source
Method: as §3
Target sequence in this assay (A0A2K5WH46 entry or part of it): as above

human LIV-1 [16] = target: T1, human LIV-1; experiment: FACS, HEK293/H_LIV-1 cells; remark: listed apart in the source
How it was run: as §4

Sequence of rhesus LIV-1 (H9FSJ2 entry or part of it): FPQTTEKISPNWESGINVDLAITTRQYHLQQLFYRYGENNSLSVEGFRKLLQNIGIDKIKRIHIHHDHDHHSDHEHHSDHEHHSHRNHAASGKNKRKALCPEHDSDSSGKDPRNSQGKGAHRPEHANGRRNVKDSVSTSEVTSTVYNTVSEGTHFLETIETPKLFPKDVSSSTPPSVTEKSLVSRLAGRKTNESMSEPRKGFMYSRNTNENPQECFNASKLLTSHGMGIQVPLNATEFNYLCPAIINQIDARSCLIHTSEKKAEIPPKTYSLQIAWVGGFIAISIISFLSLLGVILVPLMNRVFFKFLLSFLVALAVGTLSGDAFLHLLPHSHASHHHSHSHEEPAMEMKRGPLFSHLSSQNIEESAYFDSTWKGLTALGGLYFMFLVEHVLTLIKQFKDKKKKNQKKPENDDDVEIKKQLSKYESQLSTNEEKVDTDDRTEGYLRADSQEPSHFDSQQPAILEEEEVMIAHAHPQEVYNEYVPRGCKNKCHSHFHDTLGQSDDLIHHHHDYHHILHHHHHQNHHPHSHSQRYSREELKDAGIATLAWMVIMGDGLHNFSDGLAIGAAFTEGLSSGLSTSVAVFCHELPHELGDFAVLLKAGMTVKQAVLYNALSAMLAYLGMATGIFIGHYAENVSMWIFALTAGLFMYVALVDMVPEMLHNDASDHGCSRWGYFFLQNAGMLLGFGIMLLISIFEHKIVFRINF

- EC50 (human LIV-1 [1]): 0.24 nM
- Top (MFI) (human LIV-1 [1]): 7660 MFI
- Internalization EC50 (human LIV-1 [2]): 5 nM
- Internalization Top (MFI) (human LIV-1 [2]): 112000 MFI
- EC50 (human LIV-1 [3]): 0.7 nM
- Top (MFI) (human LIV-1 [3]): 17800 MFI
- EC50 (cynomolgus LIV-1 [4]): 0.38 nM
- Top (MFI) (cynomolgus LIV-1 [4]): 7470 MFI
- EC50 (human LIV-1 [5]): 1.06 nM
- Top (MFI) (human LIV-1 [5]): 18800 MFI
- EC50 (human LIV-1 [6]): 1.43 nM
- Top (MFI) (human LIV-1 [6]): 3400 MFI
B1: 290F10G10.p1.Z2 (antibody, V domains shown)
VH: EVQLVQSGAEVKKPGASVKVSCKASGYTFTSYWIHWVRQAPGQGLEWMGTIYPGDADTRSTQKFKDRVTMTADTSTSTVYMELSSLRSEDTAVYYCARSLIHDDYDKYYFDYWGQGTTVTVSS
VL: DIQMTQSPSSLSASVGDRVTITCKARQDINKYIAWYQQKPGKAPKLLIHYTSILQPGIPSRFSGSGSGRDYTFTISSLQPEDIATYYCLQYDYFFTFGGGTKVEIK
notes: also called 290F10G10.z2; LM-001

B2: LM-001-LM-D03 (antibody, V domains shown)
VH: B1 VH
VL: B1 VL
modifications: LM-D03 drug-linker conjugated; site and chain not stated
- Bottom (% viability), BT20/H_LIV1-High expression (human LIV-1 [7]): 19.5%
- Bottom (% viability), BT20/H_LIV1-Low expression (human LIV-1 [7]): 46.9%

B3: LM-001-DXD (antibody, V domains shown)
VH: B1 VH
VL: B1 VL
modifications: DXD drug moiety conjugated; site and chain not stated
- Bottom (% viability), BT20/H_LIV1-High expression (human LIV-1 [7]): 43.7%
- Bottom (% viability), BT20/H_LIV1-Low expression (human LIV-1 [7]): 58.9%

B4: LM-001-LM-D01 (antibody, V domains shown)
VH: B1 VH
VL: B1 VL
modifications: LM-D01 drug-linker conjugated; site and chain not stated
- Bottom (% viability), BT20/H_LIV1-High expression (human LIV-1 [7]): 37.9%
- Bottom (% viability), BT20/H_LIV1-Low expression (human LIV-1 [7]): 48.4%

- EC50 (human LIV-1 [3]): 0.34 nM
- Top (MFI) (human LIV-1 [3]): 19100 MFI
- EC50 (human LIV-1 [5]): 0.66 nM
- Top (MFI) (human LIV-1 [5]): 20800 MFI
- EC50 (human LIV-1 [6]): 0.68 nM
- Top (MFI) (human LIV-1 [6]): 3570 MFI
B5: 290F10G10.z2-MMAE (antibody, V domains shown)
VH: B1 VH
VL: B1 VL
modifications: MMAE drug moiety conjugated; site and chain not stated
notes: also called LM-001-MMAE
- Bottom (% viability), BT20/H_LIV1-High expression (human LIV-1 [7]): 29.1%
- Bottom (% viability), BT20/H_LIV1-Low expression (human LIV-1 [7]): 46.8%
- Min cell viability %, BT20/H_LIV-1 High (human LIV-1 [8]): 14.7%
- Min cell viability %, BT20/H_LIV-1 Low (human LIV-1 [8]): 37.9%
- Min cell viability %, HEK293/H_LIV-1 (human LIV-1 [8]): 15.3%

- ADCC reporter EC50 (human LIV-1 [9]): 0.3 nM
- ADCC reporter Top (RFU) (human LIV-1 [9]): 121000 RFU
- EC50 (cynomolgus LIV-1 [10]): 0.39 nM
- Top (MFI) (cynomolgus LIV-1 [10]): 25700 MFI
- EC50 (rhesus LIV-1): 0.27 nM
- Top (MFI) (rhesus LIV-1): 38400 MFI
- EC50 (cynomolgus LIV-1 [12]): 0.17 nM
- Top (MFI) (cynomolgus LIV-1 [12]): 41100 MFI
- Internalization EC50 (human LIV-1 [13]): 12.7 nM
- Internalization Top (RFU) (human LIV-1 [13]): 145000 RFU
- EC50 (human LIV-1 [14]): 0.29 nM
- Top (MFI) (human LIV-1 [14]): 61900 MFI
- EC50 (cynomolgus LIV-1 [15]): 0.53 nM
- Top (MFI) (cynomolgus LIV-1 [15]): 13900 MFI
- EC50 (human LIV-1 [16]): 0.21 nM
- Top (MFI) (human LIV-1 [16]): 70100 MFI
B6: 5D6B10 (antibody, V domains shown)
VH: QVQLKQSGPGLVQPSQSLSITCTVSGFSLTTYGIHWVRQSPGKGLEWLGVIWTGGTTDYNAAFISRLSISKDNSKSQVFFKMNSLQANDTAIYYCARGPSSYWGQGTLVTVSA
VL: DIVMTQSQKFMSTSVGDRVSVTCKASQNVDTNVVWYQQKPGQSPKALIHSASYRYSGVPDRFTGSGSGTDFTLTISNVQSEDLAEYFCQQYNNYPWTFGGGTKLEIK
notes: Tested as chimeric antibody
- Cell viability(%) (human LIV-1 [11]): 16.4%
- Cytotoxicity IC50 (human LIV-1 [11]): 1.55 nM
